Measured values published in US20240269194A1 (CITY OF HOPE, published 2024).

Biological target: [^68Ga]-DO3A-VS-Cys40-labeled Exendin-4 (UniProt P26349 48-86)
Assay: saturation binding of the radiolabeled probe on INS-1 cells

B1: GLP-1R expressed by INS-1 cells (receptor)
chain: GPRPQGATVSLSETVQKWREYRHQCQRFLTEAPLLATGLFCNRTFDDYACWPDGPPGSFVNVSCPWYLPWASSVLQGHVYRFCTAEGIWLHKDNSSLPWRDLSECEESKQGERNSPEEQLLSLYIIYTVGYALSFSALVIASAILVSFRHLHCTRNYIHLNLFASFILRALSVFIKDAALKWMYSTAAQQHQWDGLLSYQDSLGCRLVFLLMQYCVAANYYWLLVEGVYLYTLLAFSVFSEQRIFKLYLSIGWGVPLLFVIPWGIVKYLYEDEGCWTRNSNMNYWLIIRLPILFAIGVNFLVFIRVICIVIAKLKANLMCKTDIKCRLAKSTLTLIPLLGTHEVIFAFVMDEHARGTLRFVKLFTELSFTSFQGFMVAVLYCFVNNEVQMEFRKSWERWRLERLNIQRDSSMKPLKCPTSSVSSGATVGSSVYAATCQNSCS
notes: whole, on cells; Endogenous receptor on INS-1 cells and INS-1 tumors in mice; also called GLP-R1
In the case of B1, the Kd is reported as 8.6 nM.
